{
  "source": "patent US20050158302",
  "molecular_target": "GST-NFκBp65 C418 (GST-trans-activation domain only of NFκBp65) [GST: P08515]",
  "sequence (P08515 whole entry, looked up, the tested form may be a part)": "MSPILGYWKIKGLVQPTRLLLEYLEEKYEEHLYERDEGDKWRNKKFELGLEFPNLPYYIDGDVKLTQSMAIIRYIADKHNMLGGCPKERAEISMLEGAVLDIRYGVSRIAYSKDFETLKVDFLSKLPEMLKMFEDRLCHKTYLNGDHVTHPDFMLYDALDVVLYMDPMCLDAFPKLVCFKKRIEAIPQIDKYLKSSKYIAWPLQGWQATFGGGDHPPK",
  "data": [
    {"protein": "Cdk8 (53 kD cytosolic protein kinase of Molt-4 extracts) (protein) MDYDFKVKLSSERERVEDLFEYEGCKVGRGTYGHVYKAKRKDGKDDKDYALKQIEGTGISMSACREIALLRELKHPNVISLQKVFLSHADRKVWLLFDYAEHDLWHIIKFHRASKANKKPVQLPRGMVKSLLYQILDGIHYLHANWVLHRDLKPANILVMGEGPERGRVKIADMGFARLFNSPLKPLADLDPVVVTFWYRAPELLLGARHYTKAIDIWAIGCIFAELLTSEPIFHCRQEDIKTSNPYHHDQLDRIFNVMGFPADKDWEDIKKMPEHSTLMKDFRRNTYTNCSLIKYMEKHKVKPDSKAFHLLQKLLTMDPIKRITSEQAMQDPYFLEDPLPTSDVFAGCQIPYPKREFLTEEEPDDKGDKKNQQQQQGNNHTNGTGHPGNQDSSHTQGPPLKKVRVVPPTTTSGGLIMTSDYQRSNPHAAYPNPGPSTSQPQSSMGYSATSQQPPQYSHQTHRY", "values": [
      {"measurement": "CTD phosphorylation in in vitro kinase reaction (GST-CTD substrate)", "result": "kinase activity was only mildly detected in GST-NFκBp65 C418/cytosolic protein complexes"}
    ]}
  ]
}
